Patent EP4257134A2 (Immunomedics, Inc., dated 2023)

What was measured:
[1] = molecular target: CD22 (human) (UniProt P20273); test: flow cytometry with the unconjugated specific antibody, FITC goat anti-human IgG; Jeko-1 cells (background 6.5)
[2] = molecular target: CD22 (human) (UniProt P20273); test: flow cytometry with the unconjugated specific antibody, FITC goat anti-human IgG; Ramos cells (background 4.1)
[3] = molecular target: CD22 (human) (UniProt P20273); test: flow cytometry with the unconjugated specific antibody, FITC goat anti-human IgG; Raji cells (background 6.8)
[4] = molecular target: CD22 (human) (UniProt P20273); test: flow cytometry with the unconjugated specific antibody, FITC goat anti-human IgG; RS4;11 cells (background 4.1)
[5] = molecular target: CD22 (human) (UniProt P20273); test: flow cytometry with the unconjugated specific antibody, FITC goat anti-human IgG; WSU-FSCCL cells (background 4.9)
[6] = molecular target: CD22 (human) (UniProt P20273); test: flow cytometry with the unconjugated specific antibody, FITC goat anti-human IgG; REH cells (background 4.1)
[7] = molecular target: CD22 (human) (UniProt P20273); test: flow cytometry with the unconjugated specific antibody, FITC goat anti-human IgG; 697 cells (background 4.2)
[8] = molecular target: CD22 (human) (UniProt P20273); test: flow cytometry with the unconjugated specific antibody, FITC goat anti-human IgG; Daudi cells (background 5.9)
[9] = molecular target: CD22 (human) (UniProt P20273); test: flow cytometry with the unconjugated specific antibody, FITC goat anti-human IgG; MN-60 cells (background 5.8)
[10] = molecular target: CD74 (invariant chain, Ii) (human) (UniProt P04233); test: flow cytometry, surface only; NCI-N87 cells (background 4, GAH-FITC only)
[11] = molecular target: CD74 (invariant chain, Ii) (human) (UniProt P04233); test: flow cytometry, surface and cytoplasmic (permeabilized cells); Raji (background 5)
[12] = molecular target: CD74 (invariant chain, Ii) (human) (UniProt P04233); test: flow cytometry, surface only; Hep-G2 cells
[13] = molecular target: CD74 (invariant chain, Ii) (human) (UniProt P04233); test: flow cytometry, surface only; HuH-7 cells
[14] = molecular target: CD74 (invariant chain, Ii) (human) (UniProt P04233); test: flow cytometry, surface only; Hs746T cells (background 8, GAH-FITC only)
[15] = molecular target: CD74 (invariant chain, Ii) (human) (UniProt P04233); test: flow cytometry, surface only; Raji cells (background 3, GAH-FITC only)
[16] = molecular target: CD74 (invariant chain, Ii) (human) (UniProt P04233); test: flow cytometry, surface only; A-375 cells (background 3, GAH-FITC only)
[17] = molecular target: CD74 (invariant chain, Ii) (human) (UniProt P04233); test: flow cytometry, surface and cytoplasmic (permeabilized cells); Capan-1 (background 5)
[18] = molecular target: CD74 (invariant chain, Ii) (human) (UniProt P04233); test: flow cytometry, surface only; Hs746T cells
[19] = molecular target: CD74 (invariant chain, Ii) (human) (UniProt P04233); test: flow cytometry, surface only; Hep-G2 cells (background 6, GAH-FITC only)
[20] = molecular target: CD74 (invariant chain, Ii) (human) (UniProt P04233); test: flow cytometry, surface and cytoplasmic (permeabilized cells); NCI-N87
[21] = molecular target: CD74 (invariant chain, Ii) (human) (UniProt P04233); test: flow cytometry, surface only; HuH-7 cells (background 5, GAH-FITC only)
[22] = molecular target: CD74 (invariant chain, Ii) (human) (UniProt P04233); test: flow cytometry, surface only; Capan-1 cells (background 12, GAH-FITC only)
[23] = molecular target: CD74 (invariant chain, Ii) (human) (UniProt P04233); test: flow cytometry, surface and cytoplasmic (permeabilized cells); Hs746T
[24] = molecular target: CD74 (invariant chain, Ii) (human) (UniProt P04233); test: flow cytometry, surface only; NCI-N87 cells
[25] = molecular target: CD74 (invariant chain, Ii) (human) (UniProt P04233); test: flow cytometry, surface and cytoplasmic (permeabilized cells); Capan-1
[26] = molecular target: CD74 (invariant chain, Ii) (human) (UniProt P04233); test: flow cytometry, surface and cytoplasmic (permeabilized cells); A-375 (background 6)
[27] = molecular target: CD74 (invariant chain, Ii) (human) (UniProt P04233); test: flow cytometry, surface and cytoplasmic (permeabilized cells); Hs746T (background 5)
[28] = molecular target: CD74 (invariant chain, Ii) (human) (UniProt P04233); test: flow cytometry, surface and cytoplasmic (permeabilized cells); HuH-7
[29] = molecular target: CD74 (invariant chain, Ii) (human) (UniProt P04233); test: flow cytometry, surface and cytoplasmic (permeabilized cells); A-375
[30] = molecular target: CD74 (invariant chain, Ii) (human) (UniProt P04233); test: flow cytometry, surface and cytoplasmic (permeabilized cells); Hep-G2 (background 5)
[31] = molecular target: CD74 (invariant chain, Ii) (human) (UniProt P04233); test: flow cytometry, surface and cytoplasmic (permeabilized cells); Raji
[32] = molecular target: CD74 (invariant chain, Ii) (human) (UniProt P04233); test: flow cytometry, surface only; A-375 cells
[33] = molecular target: CD74 (invariant chain, Ii) (human) (UniProt P04233); test: flow cytometry, surface and cytoplasmic (permeabilized cells); Hep-G2
[34] = molecular target: CD74 (invariant chain, Ii) (human) (UniProt P04233); test: cell binding to antigen-positive cells (cell line not given)
[35] = molecular target: CD74 (invariant chain, Ii) (human) (UniProt P04233); test: flow cytometry, surface and cytoplasmic (permeabilized cells); HuH-7 (background 4)
[36] = molecular target: CD74 (invariant chain, Ii) (human) (UniProt P04233); test: flow cytometry, surface only; Capan-1 cells
[37] = molecular target: CD74 (invariant chain, Ii) (human) (UniProt P04233); test: flow cytometry, surface only; Raji cells
[38] = molecular target: CD74 (invariant chain, Ii) (human) (UniProt P04233); test: flow cytometry, surface and cytoplasmic (permeabilized cells); NCI-N87 (background 6)
[39] = molecular target: CD20 (human) (UniProt P11836); test: flow cytometry with the unconjugated specific antibody, FITC goat anti-human IgG; Jeko-1 cells (background 6.5)
[40] = molecular target: CD20 (human) (UniProt P11836); test: flow cytometry with the unconjugated specific antibody, FITC goat anti-human IgG; Ramos cells (background 4.1)
[41] = molecular target: CD20 (human) (UniProt P11836); test: flow cytometry with the unconjugated specific antibody, FITC goat anti-human IgG; Raji cells (background 6.8)
[42] = molecular target: CD20 (human) (UniProt P11836); test: flow cytometry with the unconjugated specific antibody, FITC goat anti-human IgG; RS4;11 cells (background 4.1)
[43] = molecular target: CD20 (human) (UniProt P11836); test: flow cytometry with the unconjugated specific antibody, FITC goat anti-human IgG; WSU-FSCCL cells (background 4.9)
[44] = molecular target: CD20 (human) (UniProt P11836); test: flow cytometry with the unconjugated specific antibody, FITC goat anti-human IgG; REH cells (background 4.1)
[45] = molecular target: CD20 (human) (UniProt P11836); test: flow cytometry with the unconjugated specific antibody, FITC goat anti-human IgG; 697 cells (background 4.2)
[46] = molecular target: CD20 (human) (UniProt P11836); test: flow cytometry with the unconjugated specific antibody, FITC goat anti-human IgG; Daudi cells (background 5.9)
[47] = molecular target: CD20 (human) (UniProt P11836); test: flow cytometry with the unconjugated specific antibody, FITC goat anti-human IgG; MN-60 cells (background 5.8)
[48] = molecular target: CEACAM6 (human) (UniProt P40199); test: flow cytometry, surface; NCI-N87 cells (staining antibody not given)
[49] = molecular target: CEACAM6 (human) (UniProt P40199); test: flow cytometry, surface; HuH-7 cells (staining antibody not given)
[50] = molecular target: CEACAM6 (human) (UniProt P40199); test: flow cytometry; Hep-G2 cells
[51] = molecular target: Human trophoblast cell-surface antigen (Trop-2) (human) (UniProt P09758); test: cell binding assay on Trop-2-expressing cells
[52] = molecular target: T1, Human trophoblast cell-surface antigen (Trop-2) (human, UniProt P09758 27-323); test: cell-based or functional assay
T1 sequence (looked up): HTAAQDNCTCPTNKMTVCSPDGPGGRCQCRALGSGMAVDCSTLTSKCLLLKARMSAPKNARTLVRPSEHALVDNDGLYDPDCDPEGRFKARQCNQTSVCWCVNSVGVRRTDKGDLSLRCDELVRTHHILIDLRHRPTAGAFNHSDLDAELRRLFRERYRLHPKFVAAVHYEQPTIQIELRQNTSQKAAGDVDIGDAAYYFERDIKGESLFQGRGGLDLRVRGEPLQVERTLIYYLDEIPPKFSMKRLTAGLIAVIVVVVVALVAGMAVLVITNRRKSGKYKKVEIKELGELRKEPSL

Sequence of CEACAM6 (human) (P40199 35-320): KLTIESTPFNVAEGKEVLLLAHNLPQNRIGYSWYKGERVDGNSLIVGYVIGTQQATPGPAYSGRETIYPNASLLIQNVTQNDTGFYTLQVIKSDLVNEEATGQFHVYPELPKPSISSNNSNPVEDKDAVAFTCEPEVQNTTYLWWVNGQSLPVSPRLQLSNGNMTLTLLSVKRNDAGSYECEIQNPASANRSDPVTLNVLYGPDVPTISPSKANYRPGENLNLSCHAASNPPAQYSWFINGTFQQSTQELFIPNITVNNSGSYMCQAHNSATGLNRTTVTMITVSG
Sequence of CD20 (human) (P11836 whole entry): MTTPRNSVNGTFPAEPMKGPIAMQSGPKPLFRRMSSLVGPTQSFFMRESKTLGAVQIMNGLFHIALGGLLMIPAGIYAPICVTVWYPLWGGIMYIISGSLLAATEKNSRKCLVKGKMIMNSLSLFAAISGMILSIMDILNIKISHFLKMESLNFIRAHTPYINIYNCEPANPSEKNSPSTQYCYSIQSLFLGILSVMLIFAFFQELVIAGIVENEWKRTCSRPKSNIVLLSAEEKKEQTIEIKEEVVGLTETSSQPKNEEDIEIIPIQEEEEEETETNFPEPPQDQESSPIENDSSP
Sequence of CD74 (invariant chain, Ii) (human) (P04233 whole entry, change not shown): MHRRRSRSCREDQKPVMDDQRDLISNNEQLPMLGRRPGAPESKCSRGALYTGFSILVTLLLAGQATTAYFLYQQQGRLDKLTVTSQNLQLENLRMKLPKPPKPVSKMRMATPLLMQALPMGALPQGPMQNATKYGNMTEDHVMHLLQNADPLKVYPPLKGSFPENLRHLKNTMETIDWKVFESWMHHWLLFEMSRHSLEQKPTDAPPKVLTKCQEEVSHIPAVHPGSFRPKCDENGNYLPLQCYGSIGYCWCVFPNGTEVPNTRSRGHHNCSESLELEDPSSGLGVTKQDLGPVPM

Molecule “Epratuzumab (hLL2, humanized anti-CD22 IgG1, unconjugated) (antibody)” has a Median fluorescence [1] of 11.2, a Median fluorescence [2] of 40.8 and a Median fluorescence [3] of 45.9. For the same molecule, the Median fluorescence [4] was 23.3, the Median fluorescence [5] was 7.7 and the Median fluorescence [6] was 22.9. For the same molecule, the Median fluorescence [7] was 16, the Median fluorescence [8] was 145 and the Median fluorescence [9] was 10.3.

With “Milatuzumab (hLL1, humanized anti-CD74 IgG1, unconjugated) (antibody)” the MFI [10] was 5, the MFI [11] was 143 and the MFI Ratio hLL1:bkgd [12] was 1.5. It also gave an MFI Ratio hLL1:bkgd [13] of 1.6, an MFI [14] of 17 and an MFI [15] of 59. The MFI [16] was 16, the MFI [17] was 248 and the MFI Ratio hLL1:bkgd [18] was 2.1. It also gave an MFI [19] of 9, an MFI Ratio hLL1:bkgd [20] of 36.7 and an MFI [21] of 8. The MFI [22] was 22, the MFI Ratio hLL1:bkgd [23] was 28.8 and the MFI Ratio hLL1:bkgd [24] was 1.3. The MFI Ratio hLL1:bkgd [25] was 49.6, the MFI [26] was 185 and the MFI [27] was 144. For the same molecule, the MFI Ratio hLL1:bkgd [28] was 28.5, the MFI Ratio hLL1:bkgd [29] was 30.8 and the MFI [30] was 156. For the same molecule, the MFI Ratio hLL1:bkgd [31] was 28.6, the MFI Ratio hLL1:bkgd [32] was 5.3 and the MFI Ratio hLL1:bkgd [33] was 31.2. The Kd [34] was 0.77 nM, the MFI [35] was 114 and the MFI Ratio hLL1:bkgd [36] was 1.8. The MFI Ratio hLL1:bkgd [37] was 19.6 and the MFI [38] was 220.

Milatuzumab-CL2A-SN-38 (antibody) gave a Kd [34] of 0.59 nM.

Milatuzumab-CL2E-SN-38 (antibody) showed a Kd [34] of 0.8 nM.

“Veltuzumab (hA20, humanized anti-CD20 IgG1, unconjugated) (antibody)” was tested, and the Median fluorescence [39] was 605, the Median fluorescence [40] was 620 and the Median fluorescence [41] was 422. It also gave a Median fluorescence [42] of 3.7, a Median fluorescence [43] of 97.4 and a Median fluorescence [44] of 12.3. It also gave a Median fluorescence [45] of 6.9, a Median fluorescence [46] of 815 and a Median fluorescence [47] of 21.5.

“hMN-15 (humanized anti-CEACAM6 IgG1, unconjugated) (antibody)” showed an MFI [48] of 1120, an MFI [49] of 81 and an MFI [50] of 175.

In the case of hRS7-CL2A-SN-38 (antibody), the Kd [51] is reported as 1.2 nM.

B1: hRS7-CL2-SN-38 (antibody, INN chains, looked up, V domains shown, part only)
VH: QVQLQQSGSELKKPGASVKVSCKASGYTFTNYGMNWVKQAPGQGLKWMGWINTYTGEPTYTDDFKGRFAFSLDTSVSTAYLQISSLKADDTAVYFCARGGFGSSYWYFDVWGQGSLVTVSS
VL: DIQLTQSPSSLSASVGDRVSITCKASQDVSIAVAWYQQKPGKAPKLLIYSASYRYTGVPDRFSGSGSGTDFTLTISSLQPEDFAVYYCQQHYITPLTFGAGTKVEIK
modifications: SN-38 via CL2 linker
In the case of B1, the Kd [51] is reported as 1.2 nM.

B2: hRS7 IgG (humanized RS7 anti-Trop-2 antibody, unconjugated) (antibody, V domains shown)
VH: B1 VH
VL: DIQLTQSPSSLSASVGDRVSITCKASQDVSIAVAWYQQKPGKAPKLLIYSASYRYTGVPDRFSGSGSGTDFTLTISSLQPEDFAVYYCQQHYITPLTFGAGTKVEIKR
B2 was tested, and the “ADCC, specific lysis of BxPC-3 target cells by PBMCs (effector to target ratio 100:1; antibody at 33.3 nM)” value [52] was 8.5%.
